Assay results reported in patent US20030166036.

Experiments:
[1] = biological target: proPSA (precursor, zymogen form of PSA), recombinant, P07288
[2] = biological target: prostate specific antigen (PSA), mature form
Sequence of prostate specific antigen (PSA), mature form (chain, as listed by the source): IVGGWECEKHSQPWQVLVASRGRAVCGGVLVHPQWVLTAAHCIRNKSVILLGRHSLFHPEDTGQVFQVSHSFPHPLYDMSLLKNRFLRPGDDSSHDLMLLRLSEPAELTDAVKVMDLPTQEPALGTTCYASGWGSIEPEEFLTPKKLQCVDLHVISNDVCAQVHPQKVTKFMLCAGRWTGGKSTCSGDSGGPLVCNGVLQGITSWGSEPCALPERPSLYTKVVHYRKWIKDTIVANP

Sequence of proPSA (precursor, zymogen form of PSA), recombinant, P07288 (P07288 18-261): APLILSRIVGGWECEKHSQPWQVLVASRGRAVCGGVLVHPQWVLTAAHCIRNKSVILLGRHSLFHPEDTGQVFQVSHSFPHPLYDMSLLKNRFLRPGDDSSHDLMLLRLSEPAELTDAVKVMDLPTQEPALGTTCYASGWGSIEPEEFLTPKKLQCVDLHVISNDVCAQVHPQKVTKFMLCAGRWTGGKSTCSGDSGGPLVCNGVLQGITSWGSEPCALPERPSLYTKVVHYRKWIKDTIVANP

B1: lysyl endopeptidase C (Wako Chemicals USA) (protein)
chain: GVSGSCNIDVVCPEGDGRRDIIRAVGAYSKSGTLACTGSLVNNTANDRKMYFLTAHHCGMGTASTAASIVVYWNYQNSTCRAPNTPASGANGDGSMSQTQSGSTVKATYATSDFTLLELNNAANPAFNLFWAGWDRRDQNYPGAIAIHHPNVAEKRISNSTSPTSFVAWGGGAGTTHLNVQWQPSGGVTEPGSSGSPIYSPEKRVLGQLHGGPSSCSATGTNRSDQYGRVFTSWTGGGAAASRLSDWLDPASTGAQFIDGLDSGGGTP
initial rate of cleavage of the Lys182 in pPSA [1]: 8% per minute | rate of cleavage at Lys145 in pPSA [1]: about 0.6% per minute | initial rate of cleavage at Lys182 [2]: 12% per minute | percent of PSA cleaved at Lys182 after 30 minutes of incubation [2]: 100% of the PSA had been cleaved at Lys182 | rate of cleavage at Lys145 [2]: 0.3% per minute | relative rate of cleavage, Lys182 against Lys145 [2]: Lys182 is cleaved approximately 30 times more rapidly than Lys145 by LysC
